# Key:
# [1] = target: T1, human soluble urokinase plasminogen activator receptor (hsuPAR) (human, UniProt Q03405 23-303, limits assumed); test: BLI (Octet) off-rate screen of scFv
# T1 construct: also called human suPAR; rhuPAR-His
# [2] = target: T2, cynomolgus soluble urokinase plasminogen activator receptor (cynomolgus suPAR) (cynomolgus, UniProt Q9GK78 23-303, limits assumed); test: BLI (Octet) off-rate screen of scFv
# T2 construct: also called cynomolgus uPAR; cynoPLAUR-His
# T2 sequence (Q9GK78 23-303 limits assumed): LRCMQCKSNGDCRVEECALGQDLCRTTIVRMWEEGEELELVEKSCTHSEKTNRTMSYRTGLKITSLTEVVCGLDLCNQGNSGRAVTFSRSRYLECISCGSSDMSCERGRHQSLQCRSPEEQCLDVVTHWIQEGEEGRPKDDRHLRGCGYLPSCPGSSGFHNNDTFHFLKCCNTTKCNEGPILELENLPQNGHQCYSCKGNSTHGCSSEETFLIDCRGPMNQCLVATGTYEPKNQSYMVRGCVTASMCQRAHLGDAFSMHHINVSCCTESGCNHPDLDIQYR
# T1 sequence (Q03405 23-303 limits assumed): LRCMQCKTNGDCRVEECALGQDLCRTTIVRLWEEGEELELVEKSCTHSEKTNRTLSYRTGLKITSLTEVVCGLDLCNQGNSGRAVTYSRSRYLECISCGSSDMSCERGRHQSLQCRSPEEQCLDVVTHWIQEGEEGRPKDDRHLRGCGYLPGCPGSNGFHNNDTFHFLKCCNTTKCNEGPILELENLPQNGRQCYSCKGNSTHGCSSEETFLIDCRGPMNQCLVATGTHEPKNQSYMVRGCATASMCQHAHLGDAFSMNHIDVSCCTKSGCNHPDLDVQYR
koff [1] [s⁻¹],koff [2] [s⁻¹],Binder
0.00364,7.99e-05,"suPAR_DB01_G04 (scFv, V domains shown, Screened as scFv) VH: QVQLVQSGAEVKKPGASVKVSCKASGYTLSGYYMHWVRQAPGQGLEWMGWIDPNSGGTKYAQKFQGRVTMTRDTSTSTVYMELSSLRSEDTAVYYCARGYDVDWFVYWGQGTLVTVSS VL: DIQMTQSPSSLSASVGDRVTITCRARQSVSYMYWYQQKPGKAPKLLIYRTSNLASGVPSRFSGSGSGTDFTLTISSLQPEDFATYYCQQYHSYPPTFGGGTKVEIK"
0.00319,0.00024,"suPAR_DB02_A10 (scFv, V domains shown, Screened as scFv) VH: QVQLVQSGAEVKKPGASVKVSCKASGYTFTGNYMHWVRQAPGQGLEWMGWIDHENGNTIYDQKFQGRVTMTRDTSTSTVYMELSSLRSEDTAVYYCARGSDVDWFVYWGQGTLVTVSS VL: DIQMTQSPSSLSASVGDRVTITCSARSSVSYMYWYQQKPGKAPKLLIYRTSNLASGVPSRFSGSGSGTDFTLTISSLQPEDFATYYCQQYHSYPPTFGGGTKVEIK"
0.00454,0.000122,"suPAR_DB01_H01 (scFv, V domains shown, Screened as scFv) VH: QVQLVQSGAEVKKPGASVKVSCKASGDTFTSYYMHWVRQAPGQGLEWMGWIDPENGNTIYDQKFQGRVTMTRDTSTSTVYMELSSLRSEDTAVYYCARGYDVDWFVYWGQGTLVTVSS VL: DIQMTQSPSSLSASVGDRVTITCSARSSVSYMYWYQQKPGKAPKLLIYRTSNLASGVPSRFSGSGSGTDFTLTISSLQPEDFATYYCQQYHSYPPTFGGGTKVEIK"
0.00114,0.000352,"suPAR_DB02_A07 (scFv, V domains shown, Screened as scFv) VH: QVQLVQSGAEVKKPGASVKVSCKASGYNIKDYYIHWVRQAPGQGLEWMGWISPDSGVTNYAQKFQGRVTMTRDTSTSTVYMELSSLRSEDTAVYYCARGYDVDWFVYWGQGTLVTVSS VL: DIQMTQSPSSLSASVGDRVTITCSARQSVSYMYWYQQKPGKAPKLLIYRTSNLASGVPSRFSGSGSGTDFTLTISSLQPEDFATYYCQQYHSYPPTFGGGTKVEIK"
0.00138,0.000219,"suPAR_DB01_H07 (scFv, V domains shown, Screened as scFv) VH: QVQLVQSGAEVKKPGASVKVSCKASGDTFSNYYMHWVRQAPGQGLEWMGWIDHENGSTIYAQKFQGRVTMTRDTSTSTVYMELSSLRSEDTAVYYCARGYDVDWFVYWGQGTLVTVSS VL: DIQMTQSPSSLSASVGDRVTITCSARSSVSYMYWYQQKPGKAPKLLIYRTSNLASGVPSRFSGSGSGTDFTLTISSLQPEDFATYYCQQYHSYPPTFGGGTKVEIK"
0.001,0.000677,"suPAR_DB01_H03 (scFv, V domains shown, Screened as scFv) VH: QVQLVQSGAEVKKPGASVKVSCKASGDTITNYYMHWVRQAPGQGLEWMGWIDTNSGGTQYAQKFQGRVTMTRDTSTSTVYMELSSLRSEDTAVYYCARGYDVDWFVYWGQGTLVTVSS VL: DIQMTQSPSSLSASVGDRVTITCSARSSVSYMYWYQQKPGKAPKLLIYRTSNLASGVPSRFSGSGSGTDFTLTISSLQPEDFATYYCQQYHSYPPTFGGGTKVEIK"
0.00309,0.000104,"suPAR_DB01_G08 (scFv, V domains shown, Screened as scFv) VH: QVQLVQSGAEVKKPGASVKVSCKASGYSFTNYYMHWVRQAPGQGLEWMGWIDHENGNTSYAQKFQGRVTMTRDTSTSTVYMELSSLRSEDTAVYYCARGYDVDWFVYWGQGTLVTVSS VL: DIQMTQSPSSLSASVGDRVTITCSARQSVSYMYWYQQKPGKAPKLLIYRTSSLASGVPSRFSGSGSGTDFTLTISSLQPEDFATYYCQQYHSYPPTFGGGTKVEIK"
0.00521,0.000151,"suPAR_DB02_A05 (scFv, V domains shown, Screened as scFv) VH: QVQLVQSGAEVKKPGASVKVSCKASGDTFTSYYMHWVRQAPGQGLEWMGWIDPENGNTIYAQKFQGRVTMTRDTSTSTVYMELSSLRSEDTAVYYCARGYDVDWFVYWGQGTLVTVSS VL: DIQMTQSPSSLSASVGDRVTITCSARQSVSYMYWYQQKPGKAPKLLIYRTSNLASGVPSRFSGSGSGTDFTLTISSLQPEDFATYYCQQYHSYPPTFGGGTKVEIK"
0.00447,0.000232,"suPAR_DB02_A11 (scFv, V domains shown, Screened as scFv) VH: QVQLVQSGAEVKKPGASVKVSCKASGGTFSSYYMHWVRQAPGQGLEWMGWIDPSNGNTIYDQKFQGRVTMTRDTSTSTVYMELSSLRSEDTAVYYCARGYDVDWFVYWGQGTLVTVSS VL: DIQMTQSPSSLSASVGDRVTITCSARQSVSYMYWYQQKPGKAPKLLIYRTSNLASGVPSRFSGSGSGTDFTLTISSLQPEDFATYYCQQYHSYPPTFGGGTKVEIK"
0.00363,7.98e-05,"suPAR_DB02_A08 (scFv, V domains shown, Screened as scFv) VH: QVQLVQSGAEVKKPGASVKVSCKASGYTFTTYYMHWVRQAPGQGLEWMGWIDPENGNTIYAQKFQGRVTMTRDTSTSTVYMELSSLRSEDTAVYYCARGYDVDWFVYWGQGTLVTVSS VL: DIQMTQSPSSLSASVGDRVTITCSARSSVSYMYWYQQKPGKAPKLLIYRTSNLASGVPSRFSGSGSGTDFTLTISSLQPEDFATYYCQQYHSYPPTFGGGTKVEIK"
0.00613,0.000484,"suPAR_DB02_A09 (scFv, V domains shown, Screened as scFv) VH: QVQLVQSGAEVKKPGASVKVSCKASGYTFTNYYMHWVRQAPGQGLEWMGWIDPEGGSTIYDQKFQGRVTMTRDTSTSTVYMELSSLRSEDTAVYYCARGYDVDWFVYWGQGTLVTVSS VL: DIQMTQSPSSLSASVGDRVTITCSARQSISYMYWYQQKPGKAPKLLIYRTSNLASGVPSRFSGSGSGTDFTLTISSLQPEDFATYYCQQYHSYPPTFGGGTKVEIK"
0.00242,0.000225,"suPAR_DB01_H04 (scFv, V domains shown, Screened as scFv) VH: QVQLVQSGAEVKKPGASVKVSCKASGYTFTNYYMHWVRQAPGQGLEWMGWIDPNSGGTNYAQKFQGRVTMTRDTSTSTVYMELSSLRSEDTAVYYCARGYDVDWFVYWGQGTLVTVSS VL: DIQMTQSPSSLSASVGDRVTITCSARSSVSYMYWYQQKPGKAPKLLIYRTSNLASGVPSRFSGSGSGTDFTLTISSLQPEDFATYYCQQYHSYPPTFGGGTKVEIK"
0.00236,0.000521,"suPAR_DB02_A04 (scFv, V domains shown, Screened as scFv) VH: QVQLVQSGAEVKKPGASVKVSCKASGYTFTGYYVHWVRQAPGQGLEWMGWIDHENGNTIYDQKFQGRVTMTRDTSTSTVYMELSSLRSEDTAVYYCARGYDVDWFVYWGQGTLVTVSS VL: DIQMTQSPSSLSASVGDRVTITCRASSSVSYMYWYQQKPGKAPKLLIYRTSNLASGVPSRFSGSGSGTDFTLTISSLQPEDFATYYCQQYHSYPPTFGGGTKVEIK"
0.00152,0.000432,"suPAR_DB01_H05 (scFv, V domains shown, Screened as scFv) VH: QVQLVQSGAEVKKPGASVKVSCKASGYTFTGNYVHWVRQAPGQGLEWMGWIDHENGNTIYDQKFQGRVTMTRDTSTSTVYMELSSLRSEDTAVYYCARGYDVDWFVYWGQGTLVTVSS VL: DIQMTQSPSSLSASVGDRVTITCSARSSVSYMYWYQQKPGKAPKLLIYRTSNLASGVPSRFSGSGSGTDFTLTISSLQPEDFATYYCQQYHSYPPTFGGGTKVEIK"
0.0052,0.000129,"suPAR_DB01_H06 (scFv, V domains shown, Screened as scFv) VH: QVQLVQSGAEVKKPGASVKVSCKASGFNIKDYYMHWVRQAPGQGLEWMGWIDPENGNTIYDQKFQGRVTMTRDTSTSTVYMELSSLRSEDTAVYYCARGYDVDWFVYWGQGTLVTVSS VL: DIQMTQSPSSLSASVGDRVTITCSARQSISYMYWYQQKPGKAPKLLIYRTSNLASGVPSRFSGSGSGTDFTLTISSLQPEDFATYYCQQYHSYPPTFGGGTKVEIK"
0.00198,0.000341,"suPAR_DB02_A03 (scFv, V domains shown, Screened as scFv) VH: QVQLVQSGAEVKKPGASVKVSCKASGYTFTDYYIHWVRQAPGQGLEWMGWIDPENGNTIYAQKFQGRVTMTRDTSTSTVYMELSSLRSEDTAVYYCARGYDVDWFVYWGQGTLVTVSS VL: DIQMTQSPSSLSASVGDRVTITCSARSSVSYMYWYQQKPGKAPKLLIYRTSNLASGVPSRFSGSGSGTDFTLTISSLQPEDFATYYCQQYHSYPPTFGGGTKVEIK"
0.00466,0.000247,"suPAR_DB01_G12 (scFv, V domains shown, Screened as scFv) VH: QVQLVQSGAEVKKPGASVKVSCKASGDTFSNYYMHWVRQAPGQGLEWMGWIDHENGNTIYDQKFQGRVTMTRDTSTSTVYMELSSLRSEDTAVYYCARGYDVDWFVYWGQGTLVTVSS VL: DIQMTQSPSSLSASVGDRVTITCSARSSISYMYWYQQKPGKAPKLLIYRTSNLASGVPSRFSGSGSGTDFTLTISSLQPEDFATYYCQQYHSYPPTFGGGTKVEIK"
0.000603,0.000374,"suPAR_DB01_H10 (scFv, V domains shown, Screened as scFv) VH: QVQLVQSGAEVKKPGASVKVSCKASGYTFTNYYMHWVRQAPGQGLEWMGWIDHENGSTIYAQKFQGRVTMTRDTSTSTVYMELSSLRSEDTAVYYCARGYDVDWFVYWGQGTLVTVSS VL: DIQMTQSPSSLSASVGDRVTITCSARQSVSYMYWYQQKPGKAPKLLIYRTSNLASGVPSRFSGSGSGTDFTLTISSLQPEDFATYYCQQYHSYPPTFGGGTKVEIK"
0.00407,1.73e-05,"suPAR_DB01_G07 (scFv, V domains shown, Screened as scFv) VH: QVQLVQSGAEVKKPGASVKVSCKASGNTFTSYYMHWVRQAPGQGLEWMGWIDPENGNTIYDQKFQGRVTMTRDTSTSTVYMELSSLRSEDTAVYYCARGYDVDWFVYWGQGTLVTVSS VL: DIQMTQSPSSLSASVGDRVTITCSARSSVSYMYWYQQKPGKAPKLLIYRTSNLASGVPSRFSGSGSGTDFTLTISSLQPEDFATYYCQQYHSYPPTFGGGTKVEIK"
0.00343,0.000197,"suPAR_DB01_G10 (scFv, V domains shown, Screened as scFv) VH: QVQLVQSGAEVKKPGASVKVSCKASGYTFTNYYMHWVRQAPGQGLEWMGWIDHEGGNTSYAQKFQGRVTMTRDTSTSTVYMELSSLRSEDTAVYYCARGYDVDWFVYWGQGTLVTVSS VL: DIQMTQSPSSLSASVGDRVTITCSARSSVSYMYWYQQKPGKAPKLLIYRTSNLASGVPSRFSGSGSGTDFTLTISSLQPEDFATYYCQQYHSYPPTFGGGTKVEIK"
0.00433,0.000347,"suPAR_DB01_G09 (scFv, V domains shown, Screened as scFv) VH: QVQLVQSGAEVKKPGASVKVSCKASGHTLNSYYMHWVRQAPGQGLEWMGWIDPENGNTIYAQKFQGRVTMTRDTSTSTVYMELSSLRSEDTAVYYCARGYDVDWFVYWGQGTLVTVSS VL: DIQMTQSPSSLSASVGDRVTITCSARQSVSYMYWYQQKPGKAPKLLIYRTSNLASGVPSRFSGSGSGTDFTLTISSLQPEDFATYYCQQYHSYPPTFGGGTKVEIK"

# From patent US20250215104A1 (WALDEN BIOSCIENCES, published 2025)
